Test: soluble on expression in E. coli; label from the status in PepcDB or PDB records

Sequence | soluble on expression in E. coli
MLTEEKEDYLKAILTNNGDKNFVTNKILSQFLNIKPPSVSEMVGRLEKAGYVETKPYKGVRLTEDGLTHTLDIIKRHRLLELFLIEILKYNWEEVHQEAEILEHRISDLFVERLDSLLNFPETCPHGGVIPRNNEYKEKYITTILNYEPGDIVTIKRVRDKTDLLIYLSSKDISIGNEVEIVSKDEMNKVIIIKRNDNVIIVSYENAMNMFAEK | not soluble
MGSDKIHHHHHHMKALMFGWEFPPHILGGLGTASFGLTRGMAMQPDMDITFCIPKPWGDEDQSFLKIVGVNQVPIVWKDVDREYVQQRVSKAGMNADQYYKYRDHIYADFSYRHVTDLGCLEFSGRYPDNLLEEINNYSIVAGVIARTEEYDIIHAHDWLTYPAGIHAKNVSGKPLVIHVHATDYDRSRGNVNPDVYAIEKNGMDNADHIITVSNLTRQTVIEKYHQDPAKVTTVHNAVEPLSPEILAIPDKKGVKDKVITFLGRITMQKGPEYFVEAAAKVLAKAPYARFVMAGSGDMMDQMIRLAAARNISDRFHFTGFMKGKQVYEVLKASDVYVMPSVSEPFGISPLEAMQCGVPSIISKQSGCAEILDYAIKVDYWDIEALADAMYSIITYPAMHEFLKVEGKKEVDNIKWEYAGQKVRRIYDNVIGNK | not soluble
MILIRLEPGMDLMEEMRAAFSEGVVVTGIGSLHRVRIRTADESELTVEGPLEILSLQGTISPDGVHIHIAVADSEGRVTGGHLRGDSPVRTTAEIAVIPYQGVLRRVMDRRTGYRELLVLE | not soluble
MENQVEVMTYAHLKEIMQALEANEAITEDTKVFIDTGWDSVQEVAPDAVSIEKVAKFTVADVLTNESFAGYSLEEKAEKMNAEGDLETAIIIRNLY | not soluble
MGSDKIHHHHHHVRACCGDQRAMSATDHGLPAIAELTDKELEVLRLLTAGHTIKSIAALLDRSEASINERLRDARRKTGVGSSRELARLVAGQENWPRKTDLSTPAVSGDADGQPALAARHWPKGTIAMFTLLPLAAGLMLVSAASQQADGPQSSHAAAAIASPLVGKWSLDTSRIPADERPRSVMIAFSVSPDQQWSTQVDIVAPDGSKMTATSTARADGVAVPISGNIPIFDTASLRQPAPNTLVMTLGKSGTPVATRVYTVARDGNSMTETIVWADKTMPKMETTYFNRVG | not soluble
AHHHHHHGSGRIISIVSGKGGTGKTTVTANLSVALGDRGRKVLAVDGDLTMANLSLVLGVDDPDVTLHDVLAGEANVEDAIYMTQFDNVYVLPGAVDWEHVLKADPRKLPEVIKSLKDKFDFILIDCPAGLQLDAMSAMLSGEEALLVTNPEISCLTDTMKVGIVLKKAGLAILGFVLNRYGRSDRDIPPEAAEDVMEVPLLAVIPEDPAIREGTLEGIPAVKYKPESKGAKAFVKLAEEIEKLAGLKARVMY | not soluble
MGSDKIHHHHHHMTSICICDDEKQQRNMLNKIITREMDLWGYPYQIKEYSNGESLVYNLEHENYYIDIIFLDIELGKSNGVDIAKTIRKHSKDTIIIFVTGFSDYVFHGYDVGALNYILKPYKTEKICKVLKEALKKLEQWKENFITVQIGTNLCKINTKDILYFKSELRKLTVVTFDKTLEYYGKLNDMETVLPSNFIRTHQRYIVNLNHVDSITQTYAKVQNEKIPISRKKYQEVVGKFTRYMLES | not soluble
MSLNIMDFNVKKLAADAGTFLSRAVQFTEEKLGQAEKTELDAHLENLLSKAECTKIWTEKIMKQTEVLLQPNPNARIEEFVYEKLDRKAPSRINNPELLGQYMIDAGTEFGPGTAYGNALIKCGETQKRIGTADRELIQTSALNFLTPLRNFIEGDYKTIAKERKLLQNKRLDLDAAKTRLKKAKAAETKSSSEQELRITQSEFDRQAEITRLLLEGISSTHAHHLRCLNDFVEAQMTYYAQCYQYMLDLQKQLGSFPSNYLSNNNQTSGTPVPYALSNAIGPSAQASTGSLVITCPSNLNDLKESSNNRKARVLYDYDAANSTELSLLADEVITVFSVVGMDSDWLMGERGNQKGKVPITYLELLNEGHHHHHH | soluble
TTFTTRDGTQIYYKDWGSGQPIVFSHGWPLNADSWESQMIFLAAQGYRVIAHDRRGHGRSSQPWSGNDMDTYADDLAQLIEHLDLRDAVLFGFSTGGGEVARYIGRHGTARVAKAGLISAVPPLMLKTEANPGGLPMEVFDGIRQASLADRSQLYKDLASGPFFGFNQPGAKSSAGMVDWFWLQGMAAGHKNAYDCIKAFSETDFTEDLKKIDVPTLVVHGDADQVVPIEASGIASAALVKGSTLKIYSGAPHGLTDTHKDQLNADLLAFIKG | soluble
MGSDKIHHHHHHMPLERLNFLGLRNLAALDMRPGPGINLITGANGSGKTSLLEGMHVLGMARSFRTQKLKHAIAHDADAVTLHGRVAGDPPVALGVRRARDASELEIRLDGERGVRVARLAEALPLQLINPDAFRLLEGSPAARREFLDWGVFHVKHEFFEAWRRVRRALKHRNALLRHDRIDARSMRVWEQELAHWSELLDALRSEYMAQFAKAFEDTLHELLPLSGLSLRYYRGWDKQRGLLEVLEGGRDTDRQMGFTQQGPQRADLRLRIGKRAAVEELSRGQQKLVVSALKLAQGRLLDELTGRTCVYLIDDLPAELDVTHRRIFCHWLERLRCQVFITSVEREALANAWQSETDVAMFHVEHGRLLTE | not soluble
MASQNRDPAATSVAAARKGAEPSGGAARGPVGKRLQQELMTLMMSGDKGISAFPESDNLFKWVGTIHGAAGTVYEDLRYKLSLEFPSGYPYNAPTVKFLTPCYHPNVDTQGNISLDILKEKWSALYDVRTILLSIQSLLGEPNIDSPLNTHAAELWKNPTAFKKYLQETYSKQVTSQEP | soluble
APARPAHPLDPLSTAEIKAATNTVKSYFAGKKISFNTVTLREPARKAYIQWKEQGGPLPPRLAYYVILEAGKPGVKEGLVDLASLSVIETRALETVQPILTVEDLCSTEEVIRNDPAVIEQCVLSGIPANEMHKVYCDPWTIGYDERWGTGKRLQQALVYYRSDEDDSQYSHPLDFCPIVDTEEKKVIFIDIPNRRRKVSKHKHANFYPKHMIEKVGAMRPEAPPINVTQPEGVSFKMTGNVMEWSNFKFHIGFNYREGIVLSDVSYNDHGNVRPIFHRISLSEMIVPYGSPEFPHQRKHALDIGEYGAGYMTNPLSLGCDCKGVIHYLDAHFSDRAGDPITVKNAVCIHEEDDGLLFKHSDFRDNFATSLVTRATKLVVSQIFTAANYEYCLYWVFMQDGAIRLDIRLTGILNTYILGDDEEAGPWGTRVYPNVNAHNHQHLFSLRIDPRIDGDGNSAAACDAKSSPYPLGSPENMYGNAFYSEKTTFKTVKDSLTNYESATGRSWDIFNPNKVNPYSGKPPSYKLVSTQCPPLLAKEGSLVAKRAPWASHSVNVVPYKDNRLYPSGDHVPQWSGDGVRGMREWIGDGSENIDNTDILFFHTFGITHFPAPEDFPLMPAEPITLMLRPRHFFTENPGLDIQPSYAMTTSEAKRAV | soluble
MRTQFINEQTMMIYFENEISESTFKKVQQTIQYIKSKNLSEITNMIPSYRAILIYFDNSGINGTELLENLELDENSNSRKQSHFKQRIIHIPVLYGGDFGPDLSEVANVNKLSQEEVIQIHTQQPYLIYMLGFMPGFPYLGGLDAKLHTPRRSEPRIKINAGSVGIANNQTGLYPMDSPGGWQIIGRTPIKVFDLNRTPMTLYEAGDYIQFYSINYQEFEKISNDINKGKFDIDKWVTYQDEYLEHHHHHH | not soluble
MSLATWSAERFGFGAALGDHDRARRAAVGEAVERYCGNAVPDALEIACYDDLARAGRPALDPATLALYSDRQYRARGFPFRPFTRQTPVAWVPGRDLYAGGPVLVPASMAYLNYFRGAHADEVATHAMLYAGIATGENREHAERFALEELFERDANTIWWASGAAGWAVADAAELLDRYDIAHGEGTGRTIRLFQVPSQFPVPVLAAFLEEPGRGLIAYGTACRADPREAATKALVEAFAMLELTAELADGDSAHWRAVARGEIPPHTYLPYRADRRYADDIRPDFRDLVDLPAVAQLYLDPRMQGRPLDRLRDDTRTTRLADIPRADGDANGGTAHRRYLDMLATQGLSAVSVDVTTPDVRAAGLTVVRVIVPGLYGNPPAAFPFLGGERLYDVPAQLGLAAGKITEDALYPYPIPHEGHHHHHH | not soluble
MSLVVFPFKHEHPEVLLHNVRVAAAHPRVHEVLCIGYERDQTYEAVERAAPEISRATGTPVSVRLQERLGTLRPGKGDGMNTALRYFLEETQWERIHFYDADITSFGPDWITKAEEAADFGYGLVRHYFPRASTDAMITWMITRTGFALLWPHTELSWIEQPLGGELLMRREVAAMLYEDERVRRRSDWGIDTLYTFVTVQQGVSIYECYIPEGKAHRLYGGLDDLRTMLVECFAAIQSLQHEVVGQPAIHRQEHPHRVPVHIAERVGYDVEATLHRLMQHWTPRQVELLELFTTPVREGLRTCQRRPAFNFMDEMAWAATYHVLLEHFQPGDPDWEELLFKLWTTRVLNYTMTVALRGYDYAQQYLYRMLGRYRYQAALENGRGHPVPPRAALSTA | soluble
MALTVSLLDKLIDSDPTTREEKDFPVSQQHMLNGLLRDLESMLNSRIGWKNIHEDFLEVRYSILNYGLPDFSSMPYSSQDGQSQLCDIVYEAIREFEPRLRNPHVQISDEKNAIDRTLRLEISATCLIDNDIHELRFNSEVEPVNLGMKLSRAK | not soluble
MSSDNLVENIIAEVLGKVGDLKTPSAASQPGISQQEPAIPRKLCGLTEFVGTATGDSIGLVIANVDSALLDAMHLEKKYRSIGILGARTGAGPQIMAADEAVKATNTEVVAIELARDTKGGAGHGSLVLFGGQDVSDVKRAVEVALGELERTFGDIYANAAGHVELQYTARASYALEKAFGAPLGRACGVIVGAPAAIGVLMADTAIKSANVDVVAYNSPAKGTSFTNEVILIVSGDSGAVRQAVRSARDVGLTLLETMGGKAPSATTPYI | not soluble
MPSDSTSNIDTTQRQSADLMAEGFGAGVNAPFLVIVDTHEVNADSTALQPLIEAQEPEEGEFDREQAARFATYMYVTQTYNSNIDVKNAQIISVNDDFTAAQILVTPYTGPADKETPELMHVLRAQEAQIEDVTGTELGTTGFTAVQLDITEQLEDAMPVYLEHHHHHH | not soluble
MNKTLIAAAVAGIVLLASNAQAQTVPEGYQLQQVLMMSRHNLRAPLANNGSVLEQSTPNKWPEWDVPGGQLTTKGGVLEVYMGHYMREWLAEQGMVKSGECPPPYTVYAYANSLQRTVATAQFFITGAFPGCDIPVHHQEKMGTMDPTFNPVITDDSAAFSEQAVAAMEKELSKLQLTDSYQLLEKIVNYKDSPACKEKQQCSLVDGKNTFSAKYQQEPGVSGPLKVGNSLVDAFTLQYYEGFPMDQVAWGEIKSDQQWKVLSKLKNGYQDSLFTSPEVARNVAKPLVSYIDKALVTDRTSAPKITVLVGHDSNIASLLTALDFKPYQLHDQNERTPIGGKIVFQRWHDSKANRDLMKIEYVYQSAEQLRNADALTLQAPAQRVTLELSGCPIDADGFCPMDKFDSVLNEAVK | soluble
KGEITYLNQAWASITGFSISECMGTMYNDYFIKEKHVADHINTQIQNKASSGMFTAKYVTKNGTIFWGEVHYKLYYDRDDQFTGSLGTMSD | not soluble
MAHHHHHHMPTTSMQAECDKIRSSGNECRRKFSGGNLLVVATDMDGTILDPKHRLTERTKDTLYELSTRGVHIIFATGRHHSCVHATRRDLLEHYKRRSTARGVPDSPTTGYDGFYIISSNGARVHNPNGDLIFLRDLDSDVVRVLYERFGIRDHGDDPRKVISVSAYQTEKWWINRTIMSDEESLAMFGVVPELHPDLKEFPTTGVGKVCFRCYDRDILHQYEAEIKEIFHGRATAVMSSEICLDVMAAEVSKAAALREIGRILNFDPEREAIAFGDSMNDGDMLCSVAKGCIMDNGQSRLKESLPHLEVVGSSSEDGVARKLQEVFQIFHE | soluble
SPAPVQDPHLIKVTVKTPKDKEDFSVTDTCTIQQLKEEISQRFKAHPDQLVLIFAGKILKDPDSLAQCGVRDGLTVHLVIKRQHRAMGNECPA | soluble

Reference: the DeepSol protein solubility set
